Numbering of substitutions follows the chain as printed.
T1: human AXL extracellular domain transiently expressed on CHO-S cells (human, UniProt P30530 26-451)
T1 construct: also called human AXL ECD on CHO-S cells
T1 sequence: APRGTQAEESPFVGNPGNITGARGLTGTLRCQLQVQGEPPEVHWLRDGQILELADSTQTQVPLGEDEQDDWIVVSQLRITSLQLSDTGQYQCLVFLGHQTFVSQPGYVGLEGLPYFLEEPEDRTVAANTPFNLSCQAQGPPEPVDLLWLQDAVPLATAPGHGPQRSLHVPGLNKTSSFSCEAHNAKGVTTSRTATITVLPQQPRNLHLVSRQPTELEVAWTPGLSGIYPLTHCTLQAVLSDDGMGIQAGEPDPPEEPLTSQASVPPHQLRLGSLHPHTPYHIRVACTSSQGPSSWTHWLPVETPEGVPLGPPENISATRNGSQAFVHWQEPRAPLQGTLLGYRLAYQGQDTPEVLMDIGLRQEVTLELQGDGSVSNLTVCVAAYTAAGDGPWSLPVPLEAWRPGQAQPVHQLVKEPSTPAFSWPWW

T2: His-tagged human AXL extracellular domain (recombinant) (human, UniProt P30530 26-451)
T2 construct: treated as one molecule; also called human AXL ECD; AXL-His ECD; not shown: His tag
T2 sequence: T1 sequence

B1: 22883 (antibody, human IgG1, kappa, L234A L235A, V domains shown)
VH: EVQLVESGGGLVQPGGSLRLSCAASGFTFSSYAMSWVRQAPGKGLEWVSAISGGGDYTYYADSVKGRFTISRDNSKNTLYLQMNSLRAEDTAVYYCAKEEWELRGPFRYWGQGTLVTVSS
VL: DIQMTQSPSTLSASVGDRVTITCRASQSISSWLAWYQQKPGKAPKFLIYKASSLESGVPSRFSGSGSGTEFTLTISSLQPDDFATYYCQQYNGFSWTFGQGTKVEIKR
notes: Fully human IgG1-LALA, kappa
B2: 23203_3 (antibody, human IgG1, kappa, L234A L235A, V domains shown)
VH: QVQLQQWGAGLLKPSETLSLTCTVSGGSFSGYYWTWIRQPPGKGLEWIGEINHAGSTNYNPSLKSRVTISVDTSKNQFSLKLSSVTAADTAVYYCSSREYSSRWHFDYWGQGTLVTVSS
VL: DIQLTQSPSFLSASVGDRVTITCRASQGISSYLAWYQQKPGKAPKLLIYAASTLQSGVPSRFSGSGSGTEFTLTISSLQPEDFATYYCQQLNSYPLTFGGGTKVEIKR
notes: Fully human IgG1-LALA, kappa
B3: 23203_4 (antibody, human IgG1, kappa, L234A L235A, V domains shown)
VH: B2 VH with T23A, S25Y
VL: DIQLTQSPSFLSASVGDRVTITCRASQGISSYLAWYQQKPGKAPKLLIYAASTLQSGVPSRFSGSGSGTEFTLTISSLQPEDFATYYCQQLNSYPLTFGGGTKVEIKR
notes: Fully human IgG1-LALA, kappa
B4: 23203_2 (antibody, human IgG1, kappa, L234A L235A, V domains shown)
VH: B2 VH with T23A, S25Y, A54S
VL: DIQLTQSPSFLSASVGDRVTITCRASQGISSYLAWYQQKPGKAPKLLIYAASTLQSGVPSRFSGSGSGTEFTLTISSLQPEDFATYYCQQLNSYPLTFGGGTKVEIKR
notes: Fully human IgG1-LALA, kappa
B5: 23203_1 (antibody, human IgG1, kappa, L234A L235A, V domains shown)
VH: B2 VH with Q6E, W7S, A9P, L12V, T35S
VL: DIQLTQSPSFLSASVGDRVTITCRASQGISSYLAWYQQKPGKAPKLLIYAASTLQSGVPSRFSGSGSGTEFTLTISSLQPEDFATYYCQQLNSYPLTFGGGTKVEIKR
notes: Fully human IgG1-LALA, kappa
B6: 22995 (antibody, human IgG1, kappa, L234A L235A, V domains shown)
VH: EVQLVESGGSLVQPGGSLRLSCAASGFTFSSSAMSWVRQAPGKGLEWVSTISGSDSSTYDADSVKGRSTISRDNSKNTLYLQMNSLRADDTAVYYCAKKGAYCSGTICYDPFDYWGQGTLVTVSS
VL: DIVLTQSPVLAVSLGQRATISCRASQSVSISSINLMHWYQQKPGQQPKLLIYRASNLASGIPARFSGSGSGTDFTLTIDPVQADDIAAYYCQQSRESPLTFGGGTKVEIKR
notes: Fully human IgG1-LALA, kappa

biological target: T1, human AXL extracellular domain …; assay: flow cytometry, serial dilution on CHO-S cells transiently expressing human AXL ECD, AF647 anti-human IgG secondary, GeoMean (RL1-H)
Description: (§1) Six anti-human AXL antibodies and reference antibody analogues were evaluated by flow cytometry for in vitro binding to human or cynomolgus AXL extracellular domain transiently expressed on CHO-S cells. For comparison, reference antibody analogues were included in the evaluation. All antibodies were incubated in serial dilutions together with the transiently transfected CHO-S cells for 30 min at 4° C. Following two washing steps, the cells were incubated with AF647-conjugated secondary anti-human IgG (H+L) antibody for 30 min at 4° C. A final washing step was done prior to acquisition of the cells on an iQue Plus screener. Results were calculated by GrafPad Prism software.

| EC50 (read off the curve) | Binder |
| --- | --- |
| ~0.07 µg/mL | B1 |
| ~0.02 µg/mL | B2 |
| ~0.02 µg/mL | B3 |
| ~0.02 µg/mL | B4 |
| ~0.02 µg/mL | B5 |
| ~0.007 µg/mL | B6 |

biological target: T3, His-tagged cynomolgus AXL extracellular domain (recombinant) (cynomolgus); assay: SPR (IBIS MX96), antibody captured, monovalent His-tagged AXL ECD in solution, 1:1 fit
T3 construct: extracellular domain; Expressed in Expi293F cells, purified by Ni-NTA; also called cynomolgus AXL ECD
Description: (§2) The kinetic binding analysis was performed by surface plasmon resonance (SPR), using a Continuous Flow Microspotter (CFM, Wasatch Microfluidics, Salt Lake City, US) combined with an IBIS MX96 SPR instrument (IBIS Technologies, The Netherlands).
(§3) His-tagged human and cynomolgus AXL ECD were expressed in Expi293F cells and purified by Ni-NTA chromatography. Binding kinetics were measured under monovalent antigen conditions by immobilizing anti-AXL antibodies and keeping the monovalent AXL antigen in solution. Antibodies were captured onto a G-a-hu-IgG Fc SensEye® (Ssens BV, The Netherlands) for 15 minutes using a Continuous Flow Microspotter (CFM, Wasatch Microfluidics, Salt Lake City, US). After spotting, the SensEye® was positioned in the IBIS MX96 biosensor and captured proteins were fixed to the surface using FixIT kit (Ssens BV, The Netherlands). Kinetic analysis was performed by applying kinetic titration series (Karlsson et al., Anal Biochem. 349(1):136-47 (2006)), with antigen injections at increasing concentrations from 0.14 nM to 100 nM. Antigen association and dissociation was performed for 15 minutes. After each antigen injection series, the surface was regenerated by 100 mM H₃PO₄, pH 3 regeneration buffer. The recorded binding responses were fitted to a simple Langmuir 1:1 binding model with Scrubber 2 software for calculation of the on-rate (kₒₙ or ka), off-rate (koff or kd) and affinity (KD) constants.

| Kd | koff | kon | Binder |
| --- | --- | --- | --- |
| 7.2 nM | 0.0002 s⁻¹ | 28000 M⁻¹ s⁻¹ | B1 |
| 13 nM | 0.0018 s⁻¹ | 140000 M⁻¹ s⁻¹ | B2 |
| 15 nM | 0.0021 s⁻¹ | 150000 M⁻¹ s⁻¹ | B3 |
| 15 nM | 0.0016 s⁻¹ | 110000 M⁻¹ s⁻¹ | B4 |
| 13 nM | 0.0024 s⁻¹ | 180000 M⁻¹ s⁻¹ | B5 |
| 80 nM | 0.0011 s⁻¹ | 14000 M⁻¹ s⁻¹ | B6 |

biological target: T2, His-tagged human AXL extracellular …; assay: as above
Description: as §2, §3

| Kd | koff | kon | Binder |
| --- | --- | --- | --- |
| 9.6 nM | 0.00031 s⁻¹ | 32000 M⁻¹ s⁻¹ | B1 |
| 15 nM | 0.0016 s⁻¹ | 110000 M⁻¹ s⁻¹ | B2 |
| 25 nM | 0.0023 s⁻¹ | 90000 M⁻¹ s⁻¹ | B3 |
| 11 nM | 0.0016 s⁻¹ | 140000 M⁻¹ s⁻¹ | B4 |
| 15 nM | 0.0021 s⁻¹ | 140000 M⁻¹ s⁻¹ | B5 |
| 0.69 nM | 0.00057 s⁻¹ | 820000 M⁻¹ s⁻¹ | B6 |

biological target: T4, cynomolgus AXL extracellular domain transiently expressed on CHO-S cells (cynomolgus); assay: flow cytometry, serial dilution on CHO-S cells transiently expressing cynomolgus AXL ECD, AF647 anti-human IgG secondary, GeoMean (RL1-H)
T4 construct: extracellular domain; also called cynomolgus AXL ECD on CHO-S cells
Description: as §1

| EC50 (read off the curve) | Binder |
| --- | --- |
| ~0.05 µg/mL | B1 |
| ~0.02 µg/mL | B2 |
| ~0.02 µg/mL | B3 |
| ~0.02 µg/mL | B4 |
| ~0.02 µg/mL | B5 |
| ~0.4 µg/mL | B6 |

From patent US20210269532A1 (SYMPHOGEN A S, published 2021)
